Measurements as given in US20240150433A1, “ERT2 MUTANTS AND USES THEREOF” (Senti Biosciences, Inc., priority 2021, published 2024).
Changes are numbered by the printed parent chain. In names and notes the source's numbering stands.

B1: wild-type ERT2: ER-LBD with G400V/M543A/L544A/V595A (SEQ ID NO: 3), benchmark construct ZF10-1_p65_ERT2 wild-type (protein)
chain: SAGDMRAANLWPSPLMIKRSKKNSLALSLTADQMVSALLDAEPPILYSEYDPTRPFSEASMMGLLTNLADRELVHMINWAKRVPGFVDLTLHDQVHLLECAWLEILMIGLVWRSMEHPVKLLFAPNLLLDRNQGKCVEGMVEIFDMLLATSSRFRMMNLQGEEFVCLKSIILLNSGVYTFLSSTLKSLEEKDHIHRVLDKITDTLIHLMAKAGLTLQQQHQRLAQLLLILSHIRHMSNKGMEHLYSMKCKNVVPLYDLLLEAADAHRLHAPTSRGGASVEETDQSHLATAGSTSSHSLQKYYITGEAEGFPATA
B2: SB06145: ZF10-1_p65_ERT2 variant L409V/N413D/Q414E/M421L/S463P/H524L (protein)
chain: B1 chain with L128V, N132D, Q133E, M140L, S182P, H243L
B3: SB06142: ZF10-1_p65_ERT2 variant L354I/L391V/N413D/M421L/S463P/M517A/H524L (protein)
chain: B1 chain with L73I, L110V, N132D, M140L, S182P, M236A, H243L
B4: SB06136: ZF10-1_p65_ERT2 variant L384M/L391V/N413D/M421L/S463P/H524L (protein)
chain: B1 chain with L103M, L110V, N132D, M140L, S182P, H243L

What was measured:
[1] = following a typical clinical dose of tamoxifen; cited from earlier work
U87MG:1066 cells = assay: ERT2 mutant validation in U87MG with mCherry reporter; format: cell-based; settings: validation screen versus wild-type ERT2
Protocol: About 16 hours before transduction 100k U87MG:1066 cells were seeded into 16 wells in 12 well plate format. During transduction, cells in each well were transduced with 100k pg of virus of ERT2 variant constructs. After transduction, cells were split in to 50k cells per well in a 24 well plate format, and treated with drug-free media or a range of endoxifen or 4-OHT drug conditions. About two days after treatment of cells with endoxifen or 4-OHT, cells were collected and mCherry reporter expression was quantified by flow cytometry.
Screening of the ERT2 mutant library identified a subset of ERT2 variants that were sensitive to endoxifen at 1 nM. Among this subset, 15 variants (Table 19) were validated in U87MG cells for their ability to activate an mCherry reporter (SB01066; FIG. 14B) at a range of concentrations of 0 pM, 10 pM, 50 pM, 100 pM, and 1 nM of endoxifen (FIG. 15A) and 4-OHT (FIG. 15B). Expression of mCherry was quantified about 24 hours after treatment with endoxifen or 4-OHT.
Select ERT2 variants (Table 20) from the previous screens were further tested for sensitivity to endoxifen and 4-OHT, compared to wild-type ERT2. […] Fold activation was calculated by gMFI mCherry levels of each test condition divided by gMFI mCherry levels of U87MG cells transduced with the reporter (SB01066).

NK cells = assay: Validation of ERT2 mutants with mCherry reporter in NK cells; format: cell-based; settings: primary NK cells, mCherry by flow cytometry
Protocol: After 10 days of feeder cell activation, NK cells were co-transduced with ERT2 mutant virus and reporter SB01066 virus (Experimental Set-up 1). On Day 2 after transduction, transduced NK cells were treated with endoxifen or 4-OHT at a range of concentrations of 0 nM, 0.01 nM, 0.1 nM, 1 nM, and 10 nM. On Day 4, cells were checked for mCherry expression by flow cytometry.

| Molecule | average peak plasma concentration [1] | 4-OHT concentration at which mCherry expression is activated (U87MG:1066 cells) | endoxifen concentration at which mCherry expression is activated (U87MG:1066 cells) | 4-OHT concentration at which variant was sensitive (NK cells) | endoxifen concentration at which variant was sensitive (NK cells) |
| --- | --- | --- | --- | --- | --- |
| CC/C(=C(\c1ccccc1)c1ccc(OCCN(C)C)cc1)c1ccccc1 [tamoxifen] | approximately 40 ng/mL | – | – | – | – |
| B1 | – | about 25 nM | about 25 nM | – | – |
| B2 | – | – | – | 0.1 nM | 0.1 nM |
| B3 | – | – | – | 0.1 nM | 0.1 nM |
| B4 | – | – | – | 0.1 nM | 0.1 nM |
